Results on seven substances are retold here after the supplement of paper PMC5998384.

The test system of data set [1] is HeLa Kyoto. As to the kind of experiment: melting temperature (median over replicates), in situ; higher = more thermally stable.
Data set [2] relates to HeLa Kyoto. As to the kind of experiment: solubility change mitosis vs G1/S (difference of NP-40 vs SDS log2 ratios) (log2 ratio difference); higher = more soluble in mitosis.
Data set [3] has as its system HeLa Kyoto. The experiment in a line: thermal stability score vs G1/S (z-score of summed log2 fold changes over temperatures); higher = more thermally stable than in G1/S.
The subject of data set [4] is HeLa Kyoto. As to the kind of experiment: solubility in G1/S (NP-40 vs SDS abundance) (log2 ratio); higher = more soluble. The following applies: cell cycle stage: G1/S.
Setting [5] is: cell cycle stage: early G1 (4.5 h after nocodazole release).
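Wherever melting temperature (median over replicates), in situ is given: HeLa Kyoto cells synchronized by double thymidine or nocodazole block, proteins quantified by TMT10plex mass spectrometry, three independent biological replicates.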
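Wherever solubility change mitosis vs G1/S (difference of NP-40 vs SDS log2 ratios) is given: synchronized HeLa Kyoto cells (double thymidine block for G1/S, nocodazole release for mitosis), protein amounts in NP-40 versus SDS lysates quantified by mass spectrometry, three biological replicates.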
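Wherever solubility in G1/S (NP-40 vs SDS abundance) is given: HeLa Kyoto cells arrested at G1/S by double thymidine block, proteins quantified by TMT10plex mass spectrometry in mild NP-40 versus SDS extracts, three biological replicates.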
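Wherever thermal stability score vs G1/S (z-score of summed log2 fold changes over temperatures) is given: synchronized HeLa Kyoto cells, proteins quantified by TMT10plex mass spectrometry, three biological replicates, mitosis taken 0.5 h after nocodazole release, G1/S directly after double thymidine block.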

Turning to “MAATAAAVVAEEDTELRDLLVQTLENSGVLNRIKAELRAAVFLALEEQEKVENKTPLVNESLKKFLNTKDGRLVASLVAEFLQFFNLDFTLAVFQPETSTLQGLEGRENLARDLGIIEAEGTVGGPLLLEVIRRCQQKEKGPTTGEGALDLSDVHSPPKSPEGKTSAQTTPSKIPRYKGQGKKKTSGQKAGDKKANDEANQSDTSVSLSEPKSKSSLHLLSHETKIGSFLSNRTLDGKDKAGLCPDEDDMEGDSFFDDPIPKPEKTYGLRKEPRKQAGSLASLSDAPPLKSGLSSLAGAPSLKDSESKRGNTVLKDLKLISDKIGSLGLGTGEDDDYVDDFNSTSHRSEKSEISIGEEIEEDLSVEIDDINTSDKLDDLTQDLTVSQLSDVADYLEDVA [FGFR1OP]”, the figures for the melting temperature with HeLa Kyoto [1] (cell cycle stage: G1/S) and with HeLa Kyoto [1] (cell cycle stage: mitosis) were 52 °C and 52.4 °C, respectively. Further, the “solubility change mitosis (log2)” value in the data set on HeLa Kyoto [2] was -0.0261. The thermal stability score in the data set on HeLa Kyoto [3] (setting [5]) is -0.228; with HeLa Kyoto [3] (cell cycle stage: mitosis) it was -0.703. Also, in the data set on HeLa Kyoto [4], the “solubility in G1/S (log2)” value turned out to be 0.156.

For “MDSRYNSTAGIGDLNQLSAAIPATRVEVSVSCRNLLDRDTFSKSDPICVLYVQGVGNKEWREFGRTEVIDNTLNPDFVRKFILDYFFEERENLRFDLYDVDSKSPNLSKHDFLGQVFCTLGEIVGSQGSRLEKPIVGIPGKKCGTIILTAEELNCCRDAVLMQFCANKLDKKDFFGKSDPFLVFYRSNEDGSFTICHKTEVVKNTLNPVWQAFKISVRALCNGDYDRTIKVEVYDWDRDGSHDFIGEFTTSYRELSRGQSQFNVYEVVNPKKKGKKKKYTNSGTVTLLSFLVETEVSFLDYIKGGTQINFTVAIDFTASNGNPAQPTSLHYMNPYQLNAYGMALKAVGEIVQDYDSDKMFPALGFGAKLPPDGRISHEFALNGNPQNPYCDGIEGVMEAYYRSLKSVQLYGPTNFAPVINHVARYASSVKDGSQYFVLLIVTDGVISDMAQTKESIVNASKLPMSIIIVGVGPAEFDAMVELDGDDVRVSSRGKYAERDIVQFVPFRDYIDRSGNHILSMARLAKDVLAEIPEQFLSYMRARGIKPSPAPPPYTPPTHVLQTQI [CPNE8]”, the melting temperature in the data set with HeLa Kyoto [1] (cell cycle stage: G1/S) came to 54.1 °C; in the data set on HeLa Kyoto [1] (cell cycle stage: mitosis), 53 °C. Besides, in the data set with HeLa Kyoto [2], the “solubility change mitosis (log2)” value is -0.135. For the same substance, the thermal stability score in the data set with HeLa Kyoto [3] (setting [5]) came to 1.74; with HeLa Kyoto [3] (cell cycle stage: mitosis), 5.6. In addition, the “solubility in G1/S (log2)” value with HeLa Kyoto [4] was -1.4.

Consider “MIIPSLEELDSLKYSDLQNLAKSLGLRANLRATKLLKALKGYIKHEARKGNENQDESQTSASSCDETEIQISNQEEAERQPLGHVTKTRRRCKTVRVDPDSQQNHSEIKISNPTEFQNHEKQESQDLRATAKVPSPPDEHQEAENAVSSGNRDSKVPSEGKKSLYTDESSKPGKNKRTAITTPNFKKLHEAHFKEMESIDQYIERKKKHFEEHNSMNELKQQPINKGGVRTPVPPRGRLSVASTPISQRRSQGRSCGPASQSTLGLKGSLKRSAISAAKTGVRFSAATKDNEHKRSLTKTPARKSAHVTVSGGTPKGEAVLGTHKLKTITGNSAAVITPFKLTTEATQTPVSNKKPVFDLKASLSRPLNYEPHKGKLKPWGQSKENNYLNQHVNRINFYKKTYKQPHLQTKEEQRKKREQERKEKKAKVLGMRRGLILAED [NUSAP1]”, for which the melting temperature with HeLa Kyoto [1] (cell cycle stage: G1/S) was found to be 54.7 °C; with HeLa Kyoto [1] (cell cycle stage: mitosis) it was 54.6 °C. The “solubility change mitosis (log2)” value in the data set on HeLa Kyoto [2] was 0.535. The thermal stability score was 1.75 in the data set with HeLa Kyoto [3] (setting [5]) and -5.46 in the data set on HeLa Kyoto [3] (cell cycle stage: mitosis). In addition, the “solubility in G1/S (log2)” value in the data set with HeLa Kyoto [4] is -0.327.

As to “MSASSLLEQRPKGQGNKVQNGSVHQKDGLNDDDFEPYLSPQARPNNAYTAMSDSYLPSYYSPSIGFSYSLGEAAWSTGGDTAMPYLTSYGQLSNGEPHFLPDAMFGQPGALGSTPFLGQHGFNFFPSGIDFSAWGNNSSQGQSTQSSGYSSNYAYAPSSLGGAMIDGQSAFANETLNKAPGMNTIDQGMAALKLGSTEVASNVPKVVGSAVGSGSITSNIVASNSLPPATIAPPKPASWADIASKPAKQQPKLKTKNGIAGSSLPPPPIKHNMDIGTWDNKGPVAKAPSQALVQNIGQPTQGSPQPVGQQANNSPPVAQASVGQQTQPLPPPPPQPAQLSVQQQAAQPTRWVAPRNRGSGFGHNGVDGNGVGQSQAGSGSTPSEPHPVLEKLRSINNYNPKDFDWNLKHGRVFIIKSYSEDDIHRSIKYNIWCSTEHGNKRLDAAYRSMNGKGPVYLLFSVNGSGHFCGVAEMKSAVDYNTCAGVWSQDKWKGRFDVRWIFVKDVPNSQLRHIRLENNENKPVTNSRDTQEVPLEKAKQVLKIIASYKHTTSIFDDFSHYEKRQEEEESVKKERQGRGK [YTHDF2]”, the melting temperature in the data set on HeLa Kyoto [1] (cell cycle stage: G1/S) came out at 51 °C; with HeLa Kyoto [1] (cell cycle stage: mitosis), 50.7 °C. Also, in the data set with HeLa Kyoto [2], the “solubility change mitosis (log2)” value turned out to be 0.0349. In addition, the thermal stability score in the data set on HeLa Kyoto [3] (setting [5]) is -0.975; with HeLa Kyoto [3] (cell cycle stage: mitosis), -1.92. Also, the “solubility in G1/S (log2)” value in the data set with HeLa Kyoto [4] came to 0.00424.

Turning to “MSAAKENPCRKFQANIFNKSKCQNCFKPRESHLLNDEDLTQAKPIYGGWLLLAPDGTDFDNPVHRSRKWQRRFFILYEHGLLRYALDEMPTTLPQGTINMNQCTDVVDGEGRTGQKFSLCILTPEKEHFIRAETKEIVSGWLEMLMVYPRTNKQNQKKKRKVEPPTPQEPGPAKVAVTSSSSSSSSSSSIPSAEKVPTTKSTLWQEEMRTKDQPDGSSLSPAQSPSQSQPPAASSLREPGLESKEEESAMSSDRMDCGRKVRVESGYFSLEKTKQDLKAEEQQLPPPLSPPSPSTPNHRRSQVIEKFEALDIEKAEHMETNAVGPSPSSDTRQGRSEKRAFPRKRDFTNEAPPAPLPDASASPLSPHRRAKSLDRRSTEPSVTPDLLNFKKGWLTKQYEDGQWKKHWFVLADQSLRYYRDSVAEEAADLDGEIDLSACYDVTEYPVQRNYGFQIHTKEGEFTLSAMTSGIRRNWIQTIMKHVHPTTAPDVTSSLPEEKNKSSCSFETCPRPTEKQEAELGEPDPEQKRSRARERRREGRSKTFDWAEFRPIQQALAQERVGGVGPADTHEPLRPEAEPGELERERARRREERRKRFGMLDATDGPGTEDAALRMEVDRSPGLPMSDLKTHNVHVEIEQRWHQVETTPLREEKQVPIAPVHLSSEDGGDRLSTHELTSLLEKELEQSQKEASDLLEQNRLLQDQLRVALGREQSAREGYVLQATCERGFAAMEETHQKKIEDLQRQHQRELEKLREEKDRLLAEETAATISAIEAMKNAHREEMERELEKSQRSQISSVNSDVEALRRQYLEELQSVQRELEVLSEQYSQKCLENAHLAQALEAERQALRQCQRENQELNAHNQELNNRLAAEITRLRTLLTGDGGGEATGSPLAQGKDAYELEVLLRVKESEIQYLKQEISSLKDELQTALRDKKYASDKYKDIYTELSIAKAKADCDISRLKEQLKAATEALGEKSPDSATVSGYDIMKSKSNPDFLKKDRSCVTRQLRNIRSKSVIEQVSWDT [MPRIP]”, the melting temperature turned out to be 51.9 °C in the data set on HeLa Kyoto [1] (cell cycle stage: G1/S) and 52.6 °C with HeLa Kyoto [1] (cell cycle stage: mitosis). The “solubility change mitosis (log2)” value in the data set on HeLa Kyoto [2] worked out at 0.41. Besides, the thermal stability score in the data set with HeLa Kyoto [3] (setting [5]) is -0.81; with HeLa Kyoto [3] (cell cycle stage: mitosis) it was -1.05. Also, in the data set with HeLa Kyoto [4], the “solubility in G1/S (log2)” value is -1.2.

With “MDVRRLKVNELREELQRRGLDTRGLKAELAERLQAALEAEEPDDERELDADDEPGRPGHINEEVETEGGSELEGTAQPPPPGLQPHAEPGGYSGPDGHYAMDNITRQNQFYDTQVIKQENESGYERRPLEMEQQQAYRPEMKTEMKQGAPTSFLPPEASQLKPDRQQFQSRKRPYEENRGRGYFEHREDRRGRSPQPPAEEDEDDFDDTLVAIDTYNCDLHFKVARDRSSGYPLTIEGFAYLWSGARASYGVRRGRVCFEMKINEEISVKHLPSTEPDPHVVRIGWSLDSCSTQLGEEPFSYGYGGTGKKSTNSRFENYGDKFAENDVIGCFADFECGNDVELSFTKNGKWMGIAFRIQKEALGGQALYPHVLVKNCAVEFNFGQRAEPYCSVLPGFTFIQHLPLSERIRGTVGPKSKAECEILMMVGLPAAGKTTWAIKHAASNPSKKYNILGTNAIMDKMRVMGLRRQRNYAGRWDVLIQQATQCLNRLIQIAARKKRNYILDQTNVYGSAQRRKMRPFEGFQRKAIVICPTDEDLKDRTIKRTDEEGKDVPDHAVLEMKANFTLPDVGDFLDEVLFIELQREEADKLVRQYNEEGRKAGPPPEKRFDNRGGGGFRGRGGGGGFQRYENRGPPGGNRGGFQNRGGGSGGGGNYRGGFNRSGGGGYSQNRWGNNNRDNNNSNNRGSYNRAPQQQPPPQQPPPPQPPPQQPPPPPSYSPARNPPGASTYNKNSNIPGSSANTSTPTVSSYSPPQPSYSQPPYNQGGYSQGYTAPPPPPPPPPAYNYGSYGGYNPAPYTPPPPPTAQTYPQPSYNQYQQYAQQWNQYYQNQGQWPPYYGNYDYGSYSGNTQGGTSTQ [HNRNPUL1]”, the melting temperature came to 46.9 °C with HeLa Kyoto [1] (cell cycle stage: G1/S) and 49.2 °C in the data set on HeLa Kyoto [1] (cell cycle stage: mitosis). Also, in the data set on HeLa Kyoto [2], the “solubility change mitosis (log2)” value was -0.0379. For the same substance, the thermal stability score in the data set with HeLa Kyoto [3] (setting [5]) is 3.72; in the data set with HeLa Kyoto [3] (cell cycle stage: mitosis), 6.44. Besides, the “solubility in G1/S (log2)” value in the data set on HeLa Kyoto [4] is -0.152.

Turning to DNMBP, the melting temperature in the data set on HeLa Kyoto [1] (cell cycle stage: G1/S) is 48.8 °C; in the data set on HeLa Kyoto [1] (cell cycle stage: mitosis), 49 °C. In the data set with HeLa Kyoto [2], the “solubility change mitosis (log2)” value was -0.133. Moreover, the thermal stability score is -0.0907 with HeLa Kyoto [3] (setting [5]) and 0.88 with HeLa Kyoto [3] (cell cycle stage: mitosis). Besides, the “solubility in G1/S (log2)” value in the data set with HeLa Kyoto [4] amounted to 0.00933.
